Results published in the Human Domainome abundance scans (Beltran et al. 2025).
± gives the uncertainty stated by the source.

B1: Zinc finger protein ZIC 2, residues 250 to 295; numbered along this chain, O95409 (parent)
chain: QCIKQELICKWIDPEQLSNPKKSCNKTFSTMHELVTHVSVEHVGGP

Variants of: B1
Experiment: abundance fitness (aPCA) (normalised: wild type 0, dead -1); higher = more abundant; growth selection in yeast, the domain comes from the species named
Details: Homo sapiens

Variant	abundance fitness
QCIKQELICKWIDPEQLSNPKKSKNKTFSTMHELVTHVSVEHVGGP [C24K]	-0.979 ± 0.13
QCIKQELICKWIDPEQLSNPKKSVNKTFSTMHELVTHVSVEHVGGP [C24V]	-0.86 ± 0.097
QCIKQELICKWIDPEQLSNPKKSHNKTFSTMHELVTHVSVEHVGGP [C24H]	-0.698 ± 0.16
QCIKQELICKWIDPEQLSNPKKSNNKTFSTMHELVTHVSVEHVGGP [C24N]	-0.798 ± 0.16
QCIKQELICKWIDPEQLSNPKKSYNKTFSTMHELVTHVSVEHVGGP [C24Y]	-0.994 ± 0.13
QCIKQELICKWIDPEQLSNPKKSINKTFSTMHELVTHVSVEHVGGP [C24I]	-1.12 ± 0.18
QCIKQELICKWIDPEQLSNPKKSPNKTFSTMHELVTHVSVEHVGGP [C24P]	-0.889 ± 0.13
QCIKQELICKWIDPEQLSNPKKSFNKTFSTMHELVTHVSVEHVGGP [C24F]	-1.05 ± 0.13
QCIKQELICKWIDPEQLSNPKKSWNKTFSTMHELVTHVSVEHVGGP [C24W]	-0.868 ± 0.1
QCIKQELICKWIDPEQLSNPKKSRNKTFSTMHELVTHVSVEHVGGP [C24R]	-0.841 ± 0.093
QCIKQELICKWIDPEQLSNPKKSQNKTFSTMHELVTHVSVEHVGGP [C24Q]	-0.764 ± 0.12
QCIKQELICKWIDPEQLSNPKKSSNKTFSTMHELVTHVSVEHVGGP [C24S]	-0.766 ± 0.094
QCIKQELICKWIDPEQLSNPKKSGNKTFSTMHELVTHVSVEHVGGP [C24G]	-0.61 ± 0.088
QCIKQELICKWIDPEQLSNPKKSENKTFSTMHELVTHVSVEHVGGP [C24E]	-0.488 ± 0.099
QCIKQELICKWIDPEQLSNPKKSANKTFSTMHELVTHVSVEHVGGP [C24A]	-0.836 ± 0.1
QCIKQELICKWIDPEQLSNPKKSLNKTFSTMHELVTHVSVEHVGGP [C24L]	-0.901 ± 0.1
QCIKQELICKWIDPEQLSNPKKSTNKTFSTMHELVTHVSVEHVGGP [C24T]	-0.8 ± 0.11
QCIKQELICKWIDPEQLSNPKKSMNKTFSTMHELVTHVSVEHVGGP [C24M]	-0.906 ± 0.12
QCIKQELICKWIDPEQLSNPKKSCNKTFSNMHELVTHVSVEHVGGP [T30N]	0.317 ± 0.12

Variant	abundance fitness
QCIKQELICKWIDPEQLSNPKKSCNKTFSFMHELVTHVSVEHVGGP [T30F]	-0.254 ± 0.14
QCIKQELICKWIDPEQLSNPKKSCNKTFSMMHELVTHVSVEHVGGP [T30M]	-0.765 ± 0.15
QCIKQELICKWIDPEQLSNPKKSCNKTFSEMHELVTHVSVEHVGGP [T30E]	-0.316 ± 0.12
QCIKQELICKWIDPEQLSNPKKSCNKTFSDMHELVTHVSVEHVGGP [T30D]	-0.072 ± 0.12
QCIKQELICKWIDPEQLSNPKKSCNKTFSIMHELVTHVSVEHVGGP [T30I]	-0.315 ± 0.16
QCIKQELICKWIDPEQLSNPKKSCNKTFSHMHELVTHVSVEHVGGP [T30H]	-0.596 ± 0.14
QCIKQELICKWIDPEQLSNPKKSCNKTFSLMHELVTHVSVEHVGGP [T30L]	-0.802 ± 0.11
QCIKQELICKWIDPEQLSNPKKSCNKTFSKMHELVTHVSVEHVGGP [T30K]	-0.389 ± 0.13
QCIKQELICKWIDPEQLSNPKKSCNKTFSAMHELVTHVSVEHVGGP [T30A]	0.122 ± 0.096
QCIKQELICKWIDPEQLSNPKKSCNKTFSGMHELVTHVSVEHVGGP [T30G]	-0.178 ± 0.092
QCIKQELICKWIDPEQLSNPKKSCNKTFSCMHELVTHVSVEHVGGP [T30C]	-0.999 ± 0.16
QCIKQELICKWIDPEQLSNPKKSCRKTFSTMHELVTHVSVEHVGGP [N25R]	0.281 ± 0.088
QCIKQELICKWIDPEQLSNPKKSCDKTFSTMHELVTHVSVEHVGGP [N25D]	-0.047 ± 0.11
QCIKQELICKWIDPEQLSNPKKSCAKTFSTMHELVTHVSVEHVGGP [N25A]	0.507 ± 0.088
QCIKQELICKWIDPEQLSNPKKSCHKTFSTMHELVTHVSVEHVGGP [N25H]	0.183 ± 0.12
QCIKQELICKWIDPEQLSNPKKSCMKTFSTMHELVTHVSVEHVGGP [N25M]	-0.019 ± 0.1
QCIKQELICKWIDPEQLSNPKKSCLKTFSTMHELVTHVSVEHVGGP [N25L]	0.083 ± 0.088
QCIKQELICKWIDPEQLSNPKKSCQKTFSTMHELVTHVSVEHVGGP [N25Q]	0.17 ± 0.11
QCIKQELICKWIDPEQLSNPKKSCVKTFSTMHELVTHVSVEHVGGP [N25V]	-0.302 ± 0.088

Variant	abundance fitness
QCIKQELICKWIDPEQLSNPKKSCPKTFSTMHELVTHVSVEHVGGP [N25P]	0.199 ± 0.099
QCIKQELICKWIDPEQLSNPKKSCGKTFSTMHELVTHVSVEHVGGP [N25G]	0.3 ± 0.084
QCIKQELICKWIDPEQLSNPKKSCKKTFSTMHELVTHVSVEHVGGP [N25K]	0.044 ± 0.11
QCIKQELICKWIDPEQLSNPKKSCFKTFSTMHELVTHVSVEHVGGP [N25F]	-0.517 ± 0.13
QCIKQELICKWIDPEQLSNPKKSCYKTFSTMHELVTHVSVEHVGGP [N25Y]	-0.33 ± 0.14
QCIKQELICKWIDPEQLSNPKKSCTKTFSTMHELVTHVSVEHVGGP [N25T]	0.072 ± 0.1
QCIKQELICKWIDPEQLSNPKKSCIKTFSTMHELVTHVSVEHVGGP [N25I]	-0.469 ± 0.15
QCIKQELICKWIDPEQLSNPKKSCWKTFSTMHELVTHVSVEHVGGP [N25W]	-0.453 ± 0.099
QCIKQELICKWIDPEQLSNPKKSCNKTFATMHELVTHVSVEHVGGP [S29A]	-0.086 ± 0.093
QCIKQELICKWIDPEQLSNPKKSCNKTFMTMHELVTHVSVEHVGGP [S29M]	-0.077 ± 0.11
QCIKQELICKWIDPEQLSNPKKSCNKTFFTMHELVTHVSVEHVGGP [S29F]	-0.215 ± 0.1
QCIKQELICKWIDPEQLSNPKKSCNKTFPTMHELVTHVSVEHVGGP [S29P]	0.209 ± 0.1
QCIKQELICKWIDPEQLSNPKKSCNKTFDTMHELVTHVSVEHVGGP [S29D]	0.352 ± 0.1
QCIKQELICKWIDPEQLSNPKKSCNKTFHTMHELVTHVSVEHVGGP [S29H]	0.077 ± 0.12
QCIKQELICKWIDPEQLSNPKKSCNKTFTTMHELVTHVSVEHVGGP [S29T]	0.551 ± 0.11
QCIKQELICKWIDPEQLSNPKKSCNKTFETMHELVTHVSVEHVGGP [S29E]	0.425 ± 0.096
QCIKQELICKWIDPEQLSNPKKSCNKTFKTMHELVTHVSVEHVGGP [S29K]	0.03 ± 0.11
QCIKQELICKWIDPEQLSNPKKSCNKTFVTMHELVTHVSVEHVGGP [S29V]	-0.167 ± 0.091
